Numbered stars: 1 amine (or outer) side, 2 acyl side, 3 side chain; on linkers, the order of the positions; unused ones are H or OH. Square brackets hold non-standard residues; d marks the D form. Side chains are listed from the residue outwards. Ends that are not written are not given here. * marks the point of attachment. C18 diacid = O=C(O)CCCCCCCCCCCCCCCCC(=O)*; γGlu = O=C(O)[C@H](CCC(=O)[*:2])N[*:1]; Ac4c = NC1(C(=O)O)CCC1; AEEA = NCCOCCOCC(=O)O; Aib = CC(C)(N)C(=O)O

In assay [1] the target is T1, human GLP-1 receptor (human, UniProt P43220 24-463). As to the kind of experiment: cell-based or functional assay.
For assay [2], the target named is T2, human glucagon receptor (human, UniProt P47871 26-477). Kind of assay: cell-based or functional assay.
T2 sequence (P47871 26-477): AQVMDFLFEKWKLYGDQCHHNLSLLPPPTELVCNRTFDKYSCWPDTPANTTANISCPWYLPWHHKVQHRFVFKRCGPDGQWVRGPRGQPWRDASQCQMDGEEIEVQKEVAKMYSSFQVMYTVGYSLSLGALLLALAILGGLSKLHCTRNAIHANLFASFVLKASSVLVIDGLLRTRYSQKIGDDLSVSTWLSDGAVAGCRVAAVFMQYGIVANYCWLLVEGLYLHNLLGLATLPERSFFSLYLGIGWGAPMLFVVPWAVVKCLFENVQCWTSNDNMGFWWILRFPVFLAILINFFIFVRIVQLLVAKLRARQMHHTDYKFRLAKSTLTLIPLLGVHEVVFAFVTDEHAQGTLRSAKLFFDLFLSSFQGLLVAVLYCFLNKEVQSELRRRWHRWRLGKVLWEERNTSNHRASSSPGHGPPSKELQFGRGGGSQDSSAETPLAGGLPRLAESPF
Assay [3] addresses T1, human GLP-1 receptor. As to the kind of experiment: displacement of 125I-GLP-1(7-36)NH2, membranes with human GLP-1R, SPA. The procedure:
The receptor binding of each compound to the human GLP-1 receptor was measured in a displacement binding assay. […] Each derivative was added in a series of concentrations to isolated membranes containing the human GLP-1 receptor and displacement of the labelled ligand was monitored. The receptor binding was reported as the concentration at which half of the labelled ligand was displaced from the receptor, the IC₅₀ value.

Assay [4] addresses T2, human glucagon receptor. Kind of assay: displacement of 125I-glucagon, membranes with human glucagon receptor, SPA. The method, then:
The receptor binding of each compound to the human glucagon receptor was measured in a displacement binding assay. […] Each derivative was added in a series of concentrations to isolated membranes containing the human glucagon receptor and displacement of the labelled ligand is monitored. The receptor binding was reported as the concentration at which half of the labelled ligand is displaced from the receptor, the IC₅₀ value.

B1: N^ε28-[(4S)-4-carboxy-4-[[(4S)-4-carboxy-4-[[2-[2-[2-[[2-[2-[2-[[(4S)-4-carboxy-4-[[(4S)-4-carboxy-4-(17-carboxyheptadecanoylamino)butanoyl]amino]butanoyl]amino … (peptide)
peptide: H[Ac4c]QGTFTSDLSKYLDLRRARDFVQWLLK([γGlu-γGlu-AEEA-AEEA-γGlu-γGlu-C18 diacid])T-NH2
modifications: N-terminus assumed
SMILES: CC(C)C[C@H](NC(=O)[C@H](CC(=O)O)NC(=O)[C@H](CC(C)C)NC(=O)[C@H](Cc1ccc(O)cc1)NC(=O)[C@H](CCCCN)NC(=O)[C@H](CO)NC(=O)[C@H](CC(C)C)NC(=O)[C@H](CC(=O)O)NC(=O)[C@H](CO)NC(=O)[C@@H](NC(=O)[C@H](Cc1ccccc1)NC(=O)[C@@H](NC(=O)CNC(=O)[C@H](CCC(N)=O)NC(=O)C1(NC(=O)[C@@H](N)Cc2c[nH]cn2)CCC1)[C@@H](C)O)[C@@H](C)O)C(=O)N[C@@H](CCCNC(=N)N)C(=O)N[C@@H](CCCNC(=N)N)C(=O)N[C@@H](C)C(=O)N[C@@H](CCCNC(=N)N)C(=O)N[C@@H](CC(=O)O)C(=O)N[C@@H](Cc1ccccc1)C(=O)N[C@H](C(=O)N[C@@H](CCC(N)=O)C(=O)N[C@@H](Cc1c[nH]c2ccccc12)C(=O)N[C@@H](CC(C)C)C(=O)N[C@@H](CC(C)C)C(=O)N[C@@H](CCCCNC(=O)CC[C@H](NC(=O)CC[C@H](NC(=O)COCCOCCNC(=O)COCCOCCNC(=O)CC[C@H](NC(=O)CC[C@H](NC(=O)CCCCCCCCCCCCCCCCC(=O)O)C(=O)O)C(=O)O)C(=O)O)C(=O)O)C(=O)N[C@H](C(N)=O)[C@@H](C)O)C(C)C
For B1, in assay [1], the “EC50 GLP-1R, CRE luciferase reporter gene assay in BHK cells” value (shortened to “EC50 GLP-1R”) stood at 0.018 nM. Also, the “EC50 GlucR, CRE luciferase reporter gene assay in BHK cells” value (“EC50 GlucR” for short) in assay [2] amounted to 0.006 nM. Further, the IC50 in assay [3] was determined as 0.4 nM; in assay [4], 4.5 nM.

B2: N^ε28-[(4S)-4-carboxy-4-[[(4S)-4-carboxy-4-[[2-[2-[2-[[2-[2-[2-[[(4S)-4-carboxy-4-[[(4S)-4-carboxy-4-(17-carboxyheptadecanoylamino)butanoyl]amino]butanoyl]amino … (peptide)
peptide: H[Ac4c]QGTFTSDLSRYLDLRRARDFVQWLLK([γGlu-γGlu-AEEA-AEEA-γGlu-γGlu-C18 diacid])T-NH2
modifications: N-terminus assumed
SMILES: CC(C)C[C@H](NC(=O)[C@H](CC(=O)O)NC(=O)[C@H](CC(C)C)NC(=O)[C@H](Cc1ccc(O)cc1)NC(=O)[C@H](CCCNC(=N)N)NC(=O)[C@H](CO)NC(=O)[C@H](CC(C)C)NC(=O)[C@H](CC(=O)O)NC(=O)[C@H](CO)NC(=O)[C@@H](NC(=O)[C@H](Cc1ccccc1)NC(=O)[C@@H](NC(=O)CNC(=O)[C@H](CCC(N)=O)NC(=O)C1(NC(=O)[C@@H](N)Cc2c[nH]cn2)CCC1)[C@@H](C)O)[C@@H](C)O)C(=O)N[C@@H](CCCNC(=N)N)C(=O)N[C@@H](CCCNC(=N)N)C(=O)N[C@@H](C)C(=O)N[C@@H](CCCNC(=N)N)C(=O)N[C@@H](CC(=O)O)C(=O)N[C@@H](Cc1ccccc1)C(=O)N[C@H](C(=O)N[C@@H](CCC(N)=O)C(=O)N[C@@H](Cc1c[nH]c2ccccc12)C(=O)N[C@@H](CC(C)C)C(=O)N[C@@H](CC(C)C)C(=O)N[C@@H](CCCCNC(=O)CC[C@H](NC(=O)CC[C@H](NC(=O)COCCOCCNC(=O)COCCOCCNC(=O)CC[C@H](NC(=O)CC[C@H](NC(=O)CCCCCCCCCCCCCCCCC(=O)O)C(=O)O)C(=O)O)C(=O)O)C(=O)O)C(=O)N[C@H](C(N)=O)[C@@H](C)O)C(C)C
Regarding B2, in assay [1], the “EC50 GLP-1R” value worked out at 0.021 nM. In addition, in assay [2], the “EC50 GlucR” value amounted to 0.016 nM. Moreover, the values for the concentration for half-maximal inhibition (IC50) in assay [3] and in assay [4] were 1.1 nM and 8.5 nM, respectively.

B3: N^ε28-[(4S)-4-carboxy-4-[[(4S)-4-carboxy-4-[[2-[2-[2-[[2-[2-[2-[[(4S)-4-carboxy-4-[[(4S)-4-carboxy-4-(17-carboxyheptadecanoylamino)butanoyl]amino]butanoyl]amino … (peptide)
peptide: H[Ac4c]QGTFTSDLSKYLDLKRAREFVQWLLK([γGlu-γGlu-AEEA-AEEA-γGlu-γGlu-C18 diacid])T-NH2
modifications: N-terminus assumed
SMILES: CC(C)C[C@H](NC(=O)[C@H](CC(=O)O)NC(=O)[C@H](CC(C)C)NC(=O)[C@H](Cc1ccc(O)cc1)NC(=O)[C@H](CCCCN)NC(=O)[C@H](CO)NC(=O)[C@H](CC(C)C)NC(=O)[C@H](CC(=O)O)NC(=O)[C@H](CO)NC(=O)[C@@H](NC(=O)[C@H](Cc1ccccc1)NC(=O)[C@@H](NC(=O)CNC(=O)[C@H](CCC(N)=O)NC(=O)C1(NC(=O)[C@@H](N)Cc2c[nH]cn2)CCC1)[C@@H](C)O)[C@@H](C)O)C(=O)N[C@@H](CCCCN)C(=O)N[C@@H](CCCNC(=N)N)C(=O)N[C@@H](C)C(=O)N[C@@H](CCCNC(=N)N)C(=O)N[C@@H](CCC(=O)O)C(=O)N[C@@H](Cc1ccccc1)C(=O)N[C@H](C(=O)N[C@@H](CCC(N)=O)C(=O)N[C@@H](Cc1c[nH]c2ccccc12)C(=O)N[C@@H](CC(C)C)C(=O)N[C@@H](CC(C)C)C(=O)N[C@@H](CCCCNC(=O)CC[C@H](NC(=O)CC[C@H](NC(=O)COCCOCCNC(=O)COCCOCCNC(=O)CC[C@H](NC(=O)CC[C@H](NC(=O)CCCCCCCCCCCCCCCCC(=O)O)C(=O)O)C(=O)O)C(=O)O)C(=O)O)C(=O)N[C@H](C(N)=O)[C@@H](C)O)C(C)C
Regarding B3, in assay [1], the “EC50 GLP-1R” value turned out to be 0.017 nM. Besides, the “EC50 GlucR” value in assay [2] came to 0.005 nM. Further, the figures for the IC50 in assay [3] and in assay [4] were 0.2 nM and 1.5 nM, respectively.

B4: N^ε28-[(4S)-4-carboxy-4-[[(4S)-4-carboxy-4-[[2-[2-[2-[[2-[2-[2-[[(4S)-4-carboxy-4-[[(4S)-4-carboxy-4-(17-carboxyheptadecanoylamino)butanoyl]amino]butanoyl]amino … (peptide)
peptide: H[Ac4c]QGTFTSDLSKYLDLRRAREFVQWLLK([γGlu-γGlu-AEEA-AEEA-γGlu-γGlu-C18 diacid])T-NH2
modifications: N-terminus assumed
SMILES: CC(C)C[C@H](NC(=O)[C@H](CC(=O)O)NC(=O)[C@H](CC(C)C)NC(=O)[C@H](Cc1ccc(O)cc1)NC(=O)[C@H](CCCCN)NC(=O)[C@H](CO)NC(=O)[C@H](CC(C)C)NC(=O)[C@H](CC(=O)O)NC(=O)[C@H](CO)NC(=O)[C@@H](NC(=O)[C@H](Cc1ccccc1)NC(=O)[C@@H](NC(=O)CNC(=O)[C@H](CCC(N)=O)NC(=O)C1(NC(=O)[C@@H](N)Cc2c[nH]cn2)CCC1)[C@@H](C)O)[C@@H](C)O)C(=O)N[C@@H](CCCNC(=N)N)C(=O)N[C@@H](CCCNC(=N)N)C(=O)N[C@@H](C)C(=O)N[C@@H](CCCNC(=N)N)C(=O)N[C@@H](CCC(=O)O)C(=O)N[C@@H](Cc1ccccc1)C(=O)N[C@H](C(=O)N[C@@H](CCC(N)=O)C(=O)N[C@@H](Cc1c[nH]c2ccccc12)C(=O)N[C@@H](CC(C)C)C(=O)N[C@@H](CC(C)C)C(=O)N[C@@H](CCCCNC(=O)CC[C@H](NC(=O)CC[C@H](NC(=O)COCCOCCNC(=O)COCCOCCNC(=O)CC[C@H](NC(=O)CC[C@H](NC(=O)CCCCCCCCCCCCCCCCC(=O)O)C(=O)O)C(=O)O)C(=O)O)C(=O)O)C(=O)N[C@H](C(N)=O)[C@@H](C)O)C(C)C
With B4, the “EC50 GLP-1R” value in assay [1] was found to be 0.017 nM. For the same molecule, the “EC50 GlucR” value in assay [2] was 0.004 nM. Moreover, the values for the 50% inhibitory concentration (IC50) in assay [3] and in assay [4] were 0.4 nM and 1.7 nM, respectively.

In the case of H[Aib]QGTFTSDLSKYLESKRARSFVQWLLK([γGlu-γGlu-Ser-Glu-Ser-γGlu-γGlu-C18 diacid])T-NH2, in assay [1], the “EC50 GLP-1R” value came to 0.007 nM. Besides, the “EC50 GlucR” value in assay [2] was 0.068 nM. For the same molecule, the results for the half-inhibitory concentration (IC50) in assay [3] and in assay [4] were 0.2 nM and 9.5 nM, respectively.

B5: N^ε28-[(4S)-4-carboxy-4-[[(4S)-4-carboxy-4-[[2-[2-[2-[[2-[2-[2-[[(4S)-4-carboxy-4-[[(4S)-4-carboxy-4-(17-carboxyheptadecanoylamino)butanoyl]amino]butanoyl]amino … (peptide)
peptide: H[Ac4c]QGTFTSDLSRYLESRRAREFVQWLLK([γGlu-γGlu-AEEA-AEEA-γGlu-γGlu-C18 diacid])T-NH2
modifications: N-terminus assumed
SMILES: CC(C)C[C@H](NC(=O)[C@H](Cc1ccc(O)cc1)NC(=O)[C@H](CCCNC(=N)N)NC(=O)[C@H](CO)NC(=O)[C@H](CC(C)C)NC(=O)[C@H](CC(=O)O)NC(=O)[C@H](CO)NC(=O)[C@@H](NC(=O)[C@H](Cc1ccccc1)NC(=O)[C@@H](NC(=O)CNC(=O)[C@H](CCC(N)=O)NC(=O)C1(NC(=O)[C@@H](N)Cc2c[nH]cn2)CCC1)[C@@H](C)O)[C@@H](C)O)C(=O)N[C@@H](CCC(=O)O)C(=O)N[C@@H](CO)C(=O)N[C@@H](CCCNC(=N)N)C(=O)N[C@@H](CCCNC(=N)N)C(=O)N[C@@H](C)C(=O)N[C@@H](CCCNC(=N)N)C(=O)N[C@@H](CCC(=O)O)C(=O)N[C@@H](Cc1ccccc1)C(=O)N[C@H](C(=O)N[C@@H](CCC(N)=O)C(=O)N[C@@H](Cc1c[nH]c2ccccc12)C(=O)N[C@@H](CC(C)C)C(=O)N[C@@H](CC(C)C)C(=O)N[C@@H](CCCCNC(=O)CC[C@H](NC(=O)CC[C@H](NC(=O)COCCOCCNC(=O)COCCOCCNC(=O)CC[C@H](NC(=O)CC[C@H](NC(=O)CCCCCCCCCCCCCCCCC(=O)O)C(=O)O)C(=O)O)C(=O)O)C(=O)O)C(=O)N[C@H](C(N)=O)[C@@H](C)O)C(C)C
Take B5: the “EC50 GLP-1R” value in assay [1] is 0.004 nM. For the same molecule, the “EC50 GlucR” value in assay [2] came to 0.017 nM. Besides, the IC50 was 0.2 nM in assay [3] and 1.4 nM in assay [4].

The values are drawn from patent US20150374794A1 (Novo Nordisk, published 2015).
